Measurements taken from patent US20210054097A1 (Novo Nordisk, published 2021).
Ends that are not written are not given here.

T1: FX activation peptide 12-mer SVAQATSSSGEA (human)
T1 peptide: SVAQATSSSGEA-biotin

T2: FX activation peptide 12-mer VAQATSSSGEAP (human)
T2 peptide: VAQATSSSGEAP-biotin

T3: FX activation peptide 12-mer AQATSSSGEAPD (human)
T3 peptide: AQATSSSGEAPD-biotin

T4: FX activation peptide 12-mer QATSSSGEAPDS (human)
T4 peptide: QATSSSGEAPDS-biotin

T5: FX activation peptide 12-mer SSSGEAPDSITW (human)
T5 peptide: SSSGEAPDSITW-biotin

T6: FX activation peptide 12-mer SGEAPDSITWKP (human)
T6 peptide: SGEAPDSITWKP-biotin

T7: FX activation peptide 12-mer GEAPDSITWKPY (human)
T7 peptide: GEAPDSITWKPY-biotin

T8: FX activation peptide 12-mer EAPDSITWKPYD (human)
T8 peptide: EAPDSITWKPYD-biotin

T9: FX activation peptide 12-mer APDSITWKPYDA (human)
T9 peptide: APDSITWKPYDA-biotin

T10: FX activation peptide 12-mer PDSITWKPYDAA (human)
T10 peptide: PDSITWKPYDAA-biotin

T11: FX activation peptide 12-mer DSITWKPYDAAD (human)
T11 peptide: DSITWKPYDAAD-biotin

T12: FX activation peptide 12-mer SITWKPYDAADL (human)
T12 peptide: SITWKPYDAADL-biotin

T13: FX activation peptide 12-mer ITWKPYDAADLD (human)
T13 peptide: ITWKPYDAADLD-biotin

T14: FX activation peptide 12-mer TWKPYDAADLDP (human)
T14 peptide: TWKPYDAADLDP-biotin

T15: FX activation peptide 12-mer KPYDAADLDPTE (human)
T15 peptide: KPYDAADLDPTE-biotin

T16: FX activation peptide 12-mer PYDAADLDPTEN (human)
T16 peptide: PYDAADLDPTEN-biotin

T17: FX activation peptide 12-mer YDAADLDPTENP (human)
T17 peptide: YDAADLDPTENP-biotin

T18: FX activation peptide 12-mer DAADLDPTENPF (human)
T18 peptide: DAADLDPTENPF-biotin

T19: FX activation peptide 12-mer AADLDPTENPFD (human)
T19 peptide: AADLDPTENPFD-biotin

T20: FX activation peptide 12-mer ADLDPTENPFDL (human)
T20 peptide: ADLDPTENPFDL-biotin

T21: FX activation peptide 12-mer DLDPTENPFDLL (human)
T21 peptide: DLDPTENPFDLL-biotin

T22: FX activation peptide 12-mer ENPFDLLDFNQT (human)
T22 peptide: ENPFDLLDFNQT-biotin

T23: FX activation peptide 12-mer NPFDLLDFNQTQ (human)
T23 peptide: NPFDLLDFNQTQ-biotin

T24: FX activation peptide 12-mer DLLDFNQTQPER (human)
T24 peptide: DLLDFNQTQPER-biotin

T25: FX activation peptide 12-mer LDFNQTQPERGD (human)
T25 peptide: LDFNQTQPERGD-biotin

T26: FX activation peptide 12-mer DFNQTQPERGDN (human)
T26 peptide: DFNQTQPERGDN-biotin

T27: FX activation peptide 12-mer FNQTQPERGDNN (human)
T27 peptide: FNQTQPERGDNN-biotin

T28: FX activation peptide 12-mer NQTQPERGDNNL (human)
T28 peptide: NQTQPERGDNNL-biotin

T29: FX activation peptide 12-mer TQPERGDNNLTR (human)
T29 peptide: TQPERGDNNLTR-biotin

T30: FX activation peptide 12-mer LDPTENPFDLLD (human)
T30 peptide: LDPTENPFDLLD-biotin

T31: FX activation peptide 12-mer FDLLDFNQTQPE (human)
T31 peptide: FDLLDFNQTQPE-biotin


Assays:
[1] = target: T1, FX activation peptide 12-mer …; assay: peptide ELISA
Protocol: (§1) The peptides were C-terminally conjugated to biotin and 50 μL of 1 μg/mL peptide solution was used for immobilization in discrete wells of the microtiter plate which was pre-coated with 1 μg/mL streptavidin. Each well was washed with washing buffer (10 mM Tris, 150 mM NaCl, 2.5 mM CaCl₂, 0.05% Tween 20, pH 8.60) followed by addition of 50 μL of 2 μg/mL FLAG-tagged anti-FX Nanobody® or IgG antibody to be tested. After 1 hour non-bound Nanobody®/antibody was washed off using washing buffer.
(§2) Bound anti-FX activation peptide ligand was detected by first binding a HRP-labelled secondary antibody (for FLAG-tagged Nanobodies: Anti-FLAG mAb M2-Peroxidase (HRP) (Sigma Aldrich, US), for antibody: Fcγ Fragment Specific Peroxidase AffiniPure F(ab′)₂ Fragment Goat Anti-Human IgG (Jackson ImmunoResearch Laboratories, Inc., US), or Peroxidase AffiniPure Goat Anti-Mouse IgG (Jackson ImmunoResearch Laboratories, Inc., US)) for 1 hour, and then adding 100 μL TMB-1 ELISA substrate (Kem-En-Tec Diagnostics, Denmark).

[2] = target: T2, FX activation peptide 12-mer …; assay: peptide ELISA
Protocol: as §1, §2

[3] = target: T3, FX activation peptide 12-mer …; assay: peptide ELISA
Protocol: as §1, §2

[4] = target: T4, FX activation peptide 12-mer …; assay: peptide ELISA
Protocol: as §1, §2

[5] = target: T5, FX activation peptide 12-mer …; assay: peptide ELISA
Protocol: as §1, §2

[6] = target: T6, FX activation peptide 12-mer …; assay: peptide ELISA
Protocol: as §1, §2

[7] = target: T7, FX activation peptide 12-mer …; assay: peptide ELISA
Protocol: as §1, §2

[8] = target: T8, FX activation peptide 12-mer …; assay: peptide ELISA
Protocol: as §1, §2

[9] = target: T9, FX activation peptide 12-mer …; assay: peptide ELISA
Protocol: as §1, §2

[10] = target: T10, FX activation peptide 12-mer …; assay: peptide ELISA
Protocol: as §1, §2

[11] = target: T11, FX activation peptide 12-mer …; assay: peptide ELISA
Protocol: as §1, §2

[12] = target: T12, FX activation peptide 12-mer …; assay: peptide ELISA
Protocol: as §1, §2

[13] = target: T13, FX activation peptide 12-mer …; assay: peptide ELISA
Protocol: as §1, §2

[14] = target: T14, FX activation peptide 12-mer …; assay: peptide ELISA
Protocol: as §1, §2

[15] = target: T15, FX activation peptide 12-mer …; assay: peptide ELISA
Protocol: as §1, §2

[16] = target: T16, FX activation peptide 12-mer …; assay: peptide ELISA
Protocol: as §1, §2

[17] = target: T17, FX activation peptide 12-mer …; assay: peptide ELISA
Protocol: as §1, §2

[18] = target: T18, FX activation peptide 12-mer …; assay: peptide ELISA
Protocol: as §1, §2

[19] = target: T19, FX activation peptide 12-mer …; assay: peptide ELISA
Protocol: as §1, §2

[20] = target: T20, FX activation peptide 12-mer …; assay: peptide ELISA
Protocol: as §1, §2

[21] = target: T21, FX activation peptide 12-mer …; assay: peptide ELISA
Protocol: as §1, §2

[22] = target: T22, FX activation peptide 12-mer …; assay: peptide ELISA
Protocol: as §1, §2

[23] = target: T23, FX activation peptide 12-mer …; assay: peptide ELISA
Protocol: as §1, §2

[24] = target: T24, FX activation peptide 12-mer …; assay: peptide ELISA
Protocol: as §1, §2

[25] = target: T25, FX activation peptide 12-mer …; assay: peptide ELISA
Protocol: as §1, §2

[26] = target: T26, FX activation peptide 12-mer …; assay: peptide ELISA
Protocol: as §1, §2

[27] = target: T27, FX activation peptide 12-mer …; assay: peptide ELISA
Protocol: as §1, §2

[28] = target: T28, FX activation peptide 12-mer …; assay: peptide ELISA
Protocol: as §1, §2

[29] = target: T29, FX activation peptide 12-mer …; assay: peptide ELISA
Protocol: as §1, §2

[30] = target: human plasma-derived Factor X zymogen (human, UniProt P00742 41-179; P00742 183-488); assay: cell-based or functional assay
Sequence of human plasma-derived Factor X zymogen (P00742 41-179, chain 1 of 2): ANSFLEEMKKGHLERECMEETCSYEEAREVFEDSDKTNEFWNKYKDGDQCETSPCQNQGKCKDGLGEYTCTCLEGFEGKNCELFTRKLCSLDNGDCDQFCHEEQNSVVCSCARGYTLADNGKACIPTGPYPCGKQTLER
Sequence of human plasma-derived Factor X zymogen (P00742 183-488, chain 2 of 2): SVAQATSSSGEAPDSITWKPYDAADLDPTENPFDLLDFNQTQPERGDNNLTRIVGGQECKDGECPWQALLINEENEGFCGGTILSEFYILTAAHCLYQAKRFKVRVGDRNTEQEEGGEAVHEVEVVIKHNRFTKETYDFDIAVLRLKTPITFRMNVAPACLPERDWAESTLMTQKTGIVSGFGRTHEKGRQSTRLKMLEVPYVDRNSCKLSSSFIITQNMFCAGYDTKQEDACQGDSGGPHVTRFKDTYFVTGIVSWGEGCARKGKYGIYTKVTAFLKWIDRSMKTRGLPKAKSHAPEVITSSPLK

[31] = target: T30, FX activation peptide 12-mer …; assay: peptide ELISA
Protocol: as §1, §2

[32] = target: T31, FX activation peptide 12-mer …; assay: peptide ELISA
Protocol: as §1, §2

ELISA signal relative to background [1]	ELISA signal relative to background [2]	ELISA signal relative to background [3]	ELISA signal relative to background [4]	ELISA signal relative to background [5]	ELISA signal relative to background [6]	ELISA signal relative to background [7]	ELISA signal relative to background [8]	ELISA signal relative to background [9]	ELISA signal relative to background [10]	ELISA signal relative to background [11]	ELISA signal relative to background [12]	ELISA signal relative to background [13]	ELISA signal relative to background [14]	ELISA signal relative to background [15]	ELISA signal relative to background [16]	ELISA signal relative to background [17]	ELISA signal relative to background [18]	ELISA signal relative to background [19]	ELISA signal relative to background [20]	also measured	Binder
0.92	0.99	1.08	1.08	1.24	0.98	1.05	1.01	1.04	0.95	1.05	1.13	1.28	0.99	1.33	1.06	1.06	1.1	1.05	0.98	ELISA signal relative to background [21]: 1.06; ELISA signal relative to background [22]: 17.8; ELISA signal relative to background [23]: 8.27; ELISA signal relative to background [24]: 1.12; ELISA signal relative to background [25]: 0.98; ELISA signal relative to background [26]: 0.97; ELISA signal relative to background [27]: 1.05; ELISA signal relative to background [28]: 1.13; ELISA signal relative to background [29]: 1.09; Increase in FX activation (fold) [30]: 4.1 fold	Nb 729A04 (VHH, monovalent Nanobody; not shown: C-terminal FLAG3 and HIS6 tag) VHH: EVQLVESGGGVVQPGGSLRLSCAASGFTFSDYAMSWVRQAPGKGLEWVSGITSGGGRTYYADSVKGRFTISRDNSKNTLYLQMNSLRPEDTALYYCAAVRTLGLRGSYDYWGQGTLVTVSS
0.92	0.93	0.91	0.94	0.9	0.88	0.9	0.89	0.96	0.92	0.93	0.94	1.03	1	0.9	0.82	0.85	0.85	0.82	0.87	ELISA signal relative to background [21]: 0.88; ELISA signal relative to background [31]: 0.94; ELISA signal relative to background [24]: 1.13; ELISA signal relative to background [25]: 0.93; ELISA signal relative to background [26]: 0.87; ELISA signal relative to background [27]: 0.88; ELISA signal relative to background [28]: 0.85; ELISA signal relative to background [29]: 0.97; Increase in FX activation (fold) [30]: 26 fold	Nb 701C06 (VHH, monovalent Nanobody; not shown: C-terminal FLAG3 and HIS6 tag) VHH: EVQLVESGGGVVQPGGSLRLSCAASGRTFSTYAMGWFRQAPGKEREFVAAISRRGGRTYYADSVKGRFTISRDNSKNTVYLQMNSLRPEDTALYYCAADATARDGLLDYWGQGTLVTVSS
0.76	0.84	0.89	0.81	0.73	0.78	0.8	0.76	0.9	0.84	0.89	1.04	0.89	0.91	0.73	0.73	0.75	0.7	0.69	0.77	ELISA signal relative to background [21]: 0.74; ELISA signal relative to background [31]: 0.8; ELISA signal relative to background [32]: 0.99; ELISA signal relative to background [24]: 0.81; ELISA signal relative to background [25]: 0.79; ELISA signal relative to background [26]: 0.75; ELISA signal relative to background [27]: 0.82; ELISA signal relative to background [28]: 0.87; ELISA signal relative to background [29]: 0.88; Increase in FX activation (fold) [30]: 17.2 fold	Nb 701D07 (VHH, monovalent Nanobody; not shown: C-terminal FLAG3 and HIS6 tag) VHH: EVQLVESGGGVVQPGGSLRLSCAASGGTLSRYAMGWFRQAPGKEREFVAAITRRGSRTYYADSVKGRFTISRDNSKNTVYLQMNSLRPEDTALYYCAADLAPGDYALDYWGQGTLVTVSS
